Test results as given in patent publication US20240279325A1 (Chugai, published 2024).
Changes are numbered by the printed parent chain. In names and notes the source's numbering stands. Like-named read-outs stand apart in the source and are kept apart here.

Legend:
human FcγRIIb = target: T1, human FcγRIIb (human, UniProt P31994 43-217); assay: SPR (Biacore), amount bound against IL6R-F652/IL6R-L x 100
T1 sequence: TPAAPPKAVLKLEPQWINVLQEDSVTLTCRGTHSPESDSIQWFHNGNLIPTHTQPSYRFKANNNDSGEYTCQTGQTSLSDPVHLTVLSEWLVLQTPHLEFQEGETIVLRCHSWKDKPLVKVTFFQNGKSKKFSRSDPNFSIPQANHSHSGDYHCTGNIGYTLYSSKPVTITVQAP
From the text: (§1) These variants were expressed and purified by the method of Reference Example 1. These Fc variants are called PD variants. Interactions of each PD variant with FcγRIIa type R (allotype R131) and FcγRIIb were comprehensively evaluated by the method of Reference Example 2.

[1] = target: T2, human FcγRIIa type R (allotype R131) (human, UniProt P12318 36-217); assay: as above
T2 construct: also called FcγRIIaR; R-type FcγRIIa
T2 chain: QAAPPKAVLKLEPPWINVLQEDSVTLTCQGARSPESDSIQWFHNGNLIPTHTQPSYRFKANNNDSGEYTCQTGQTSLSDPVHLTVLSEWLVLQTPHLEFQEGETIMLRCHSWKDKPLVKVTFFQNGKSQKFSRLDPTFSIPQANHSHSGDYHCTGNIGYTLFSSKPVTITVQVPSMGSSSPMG
From the text: as §1

[2] = target: T3, human FcγRIIa type R (allotype R131) extracellular domain with C-terminal His tag (human, UniProt P12318 34-217); assay: SPR (Biacore), antibody captured, FcγR analyte
T3 construct: also called FcγRIIaR
T3 chain: T2 chain

[3] = target: T4, human FcγRIIIa type V (allotype V158) extracellular domain with C-terminal His tag (human, UniProt P08637 17-208); assay: SPR (Biacore), antibody captured, FcγR analyte
T4 construct: also called FcγRIIIaV
T4 sequence (P08637 other isoform, or with tags, fused parts or gaps): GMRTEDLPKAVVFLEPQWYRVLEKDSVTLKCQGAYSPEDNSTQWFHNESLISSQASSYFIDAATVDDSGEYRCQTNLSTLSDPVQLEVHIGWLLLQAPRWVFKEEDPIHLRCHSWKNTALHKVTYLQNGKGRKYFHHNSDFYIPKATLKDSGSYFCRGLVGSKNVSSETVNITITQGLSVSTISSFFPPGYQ

[4] = target: T5, human FcγRIa extracellular domain with C-terminal His tag (human, UniProt P12314 16-292); assay: SPR (Biacore), captured antibody, FcγR analyte
T5 construct: extracellular domain; also called FrgRIa
T5 sequence (P12314 16-292): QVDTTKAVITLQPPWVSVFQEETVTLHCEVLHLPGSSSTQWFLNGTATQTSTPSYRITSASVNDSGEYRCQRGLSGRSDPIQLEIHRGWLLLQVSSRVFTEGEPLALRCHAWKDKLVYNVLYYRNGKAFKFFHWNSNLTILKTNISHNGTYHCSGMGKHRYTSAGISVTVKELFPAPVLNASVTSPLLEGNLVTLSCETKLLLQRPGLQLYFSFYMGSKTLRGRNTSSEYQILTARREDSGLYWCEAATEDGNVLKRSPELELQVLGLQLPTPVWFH

[5] = target: T6, human FcγRIIa type R (allotype R131) extracellular domain with C-terminal His tag (human, UniProt P12318 34-217); assay: SPR (Biacore), captured antibody, FcγR analyte
T6 construct: extracellular domain; also called FcγRIIaR; FrgRIIaR
T6 sequence (looked up): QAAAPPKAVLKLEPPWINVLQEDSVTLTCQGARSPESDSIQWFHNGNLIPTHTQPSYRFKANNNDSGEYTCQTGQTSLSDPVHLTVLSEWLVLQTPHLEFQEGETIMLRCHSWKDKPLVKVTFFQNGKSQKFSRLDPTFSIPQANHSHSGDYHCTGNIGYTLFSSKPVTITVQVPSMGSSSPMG

[6] = target: T7, human FcγRIIIa type V (allotype V158) extracellular domain with C-terminal His tag (human, UniProt P08637 17-208); assay: SPR (Biacore), captured antibody, FcγR analyte
T7 construct: extracellular domain; also called FcγRIIIaV; FrgRIIIaV
T7 sequence (P08637 17-208 F176V): as the sequence (P08637 other isoform, or with tags, fused parts or gaps) above, with S179A counted along it

[7] = target: T8, human FcγRIIa type H (allotype H131) extracellular domain with C-terminal His tag (human, UniProt P12318 34-217); assay: SPR (Biacore), captured antibody, FcγR analyte
T8 construct: extracellular domain; also called FcγRIIaH; FrgRIIaH
T8 sequence (looked up): T6 sequence (looked up) with R134H

[8] = target: T9, human FcγRIIb extracellular domain with C-terminal His tag (human, UniProt P31994 43-217); assay: SPR (Biacore), captured antibody, FcγR analyte
T9 construct: extracellular domain; also called FrgRIIb
T9 sequence (looked up): T1 sequence

[9] = target: T10, human FcγRIIb extracellular domain with C-terminal His tag (human, UniProt P31994 43-217); assay: SPR (Biacore); parent is IL6R-B3/IL6R-L
T10 construct: extracellular domain; not shown: His tag at the C terminus
T10 sequence (looked up): T1 sequence

[10] = target: T11, human FcγRIa extracellular domain with C-terminal His tag (human, UniProt P12314 16-292); assay: SPR (Biacore), antibody captured, FcγR analyte
T11 construct: not shown: His tag at the C terminus
T11 sequence (P12314 16-292): as the sequence (P12314 16-292) above

[11] = target: T10, human FcγRIIb extracellular domain with …; assay: ratio of SPR KDs, FcγRIIaR over FcγRIIb
[12] = target: T10, human FcγRIIb extracellular domain with …; assay: ratio of SPR KDs, FcγRIIaH over FcγRIIb
[13] = target: T12, human FcγRIIIa type V (allotype V158) extracellular domain with C-terminal His tag (human, UniProt P08637 17-208); assay: SPR (Biacore), antibody captured, FcγR analyte
T12 construct: extracellular domain; also called FcγRIIIaV; FcγRIIIa V type; not shown: His tag at the C terminus
T12 sequence (P08637 17-208 F176V): as the sequence (P08637 other isoform, or with tags, fused parts or gaps) above, with S179A counted along it

[14] = target: T13, FcγRIIb extracellular domain with C-terminal His tag (human, UniProt P31994 43-217); assay: SPR; KD of IL6R-B3/IL6R-L divided by KD of the variant
T13 construct: extracellular domain
T13 sequence (looked up): T1 sequence

[15] = target: T14, FcγRIIa type R (allotype R131) extracellular domain with C-terminal His tag (human, UniProt P12318 34-217); assay: as above
T14 construct: extracellular domain; also called FcγRIIaR; FcγRIIa R type
T14 sequence (looked up): T6 sequence (looked up)

[16] = target: T13, FcγRIIb extracellular domain with …; assay: SPR; KD for FcγRIIaH divided by KD for FcγRIIb
[17] = target: T13, FcγRIIb extracellular domain with …; assay: SPR (Biacore), antibody captured, FcγR as analyte
[18] = target: T15, FcγRIIa type H (allotype H131) extracellular domain with C-terminal His tag (human, UniProt P12318 34-217); assay: SPR (Biacore), antibody captured, FcγR as analyte
T15 construct: extracellular domain; also called FcγRIIaH; FcγRIIa H type
T15 sequence (looked up): T6 sequence (looked up) with R134H

[19] = target: T13, FcγRIIb extracellular domain with …; assay: SPR; KD for FcγRIIaR divided by KD for FcγRIIb
mouse FcγRIV = target: T16, mouse FcγRIV (mouse, UniProt A0A0B4J1G0 21-203); assay: SPR (Biacore), method of Reference Example 2
T16 construct: also called mFcγRIV; not shown: purification tag of the soluble receptor (probably a His tag)
T16 sequence: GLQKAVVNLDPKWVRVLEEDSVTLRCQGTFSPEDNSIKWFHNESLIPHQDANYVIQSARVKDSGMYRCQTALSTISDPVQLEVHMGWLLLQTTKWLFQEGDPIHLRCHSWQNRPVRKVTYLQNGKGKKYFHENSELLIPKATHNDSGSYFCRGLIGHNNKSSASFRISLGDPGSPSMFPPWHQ

mouse FcγRI = target: T17, mouse FcγRI (mouse, UniProt P26151 25-297); assay: SPR (Biacore), method of Reference Example 2
T17 construct: extracellular domain; also called mFcγRI
T17 sequence (looked up): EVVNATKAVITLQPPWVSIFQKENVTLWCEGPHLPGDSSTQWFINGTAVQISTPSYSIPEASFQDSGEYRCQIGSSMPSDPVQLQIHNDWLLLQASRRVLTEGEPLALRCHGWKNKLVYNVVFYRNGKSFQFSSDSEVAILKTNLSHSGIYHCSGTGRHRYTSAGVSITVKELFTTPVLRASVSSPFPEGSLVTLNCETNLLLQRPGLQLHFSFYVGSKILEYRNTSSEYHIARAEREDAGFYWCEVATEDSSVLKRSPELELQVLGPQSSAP

B1: IL6R-F652/IL6R-L (antibody, human IgG1, kappa)
heavy: QVQLQESGPGLVKPSETLSLTCAVSGHSISHDHAWSWVRQPPGEGLEWIGFISYSGITNYNPSLQGRVTISRDNSKNTLYLQMNSLRAEDTAVYYCARSLARTTAMDYWGEGTLVTVSSASTKGPSVFPLAPSSKSTSGGTAALGCLVKDYFPEPVTVSWNSGALTSGVHTFPAVLQSSGLYSLSSVVTVPSSSLGTQTYICNVNHKPSNTKVDKKVEPKSCDKTHTCPPCPAPELLGGDSVFLFPPKPKDTLYISRTPEVTCVVVDVSHEDPEVKFNWYVDGVEVHNAKTKPREEQYNSTYRVVSVLTVLHQDWLNGKEYKCKVSNKALPAPIEKTISKAKGQPREPQVYTLPPSRDELTKNQVSLTCLVKGFYPSDIAVEWESNGQPENNYKTTPPVLDSDGSFFLYSKLTVDKSRWQQGNVFSCSVMHEALHYHYTQKSLSLSP
light: not shown
notes: copies: 2 + 2
relative binding activity (human FcγRIIb): 100 IL6R-F652/IL6R-L = 100 | relative binding activity [1]: 100 IL6R-F652/IL6R-L = 100

B2: IL6R-BP112/IL6R-L (antibody, human IgG1, kappa, name in EU numbering)
heavy: B1 heavy with Y254M, P273G, Y436N, K441E
light: not shown
notes: Alterations introduced into IL6R-B3; also called P238D/P271G; copies: 2 + 2
Kd [2]: 3.5 µM | Kd [3]: 69 µM

B3: IL6R-BP195/IL6R-L (antibody, human IgG1, kappa, name in EU numbering)
heavy: QVQLQESGPGLVKPSETLSLTCAVSGHSISHDHAWSWVRQPPGEGLEWIGFISYSGITNYNPSLQGRVTISRDNSKNTLYLQMNSLRAEDTAVYYCARSLARTTAMDYWGEGTLVTVSSASTKGPSVFPLAPSSKSTSGGTAALGCLVKDYFPEPVTVSWNSGALTSGVHTFPAVLQSSGLYSLSSVVTVPSSSLGTQTYICNVNHKPSNTKVDKKVEPKSCDKTHTCPPCPAPDYLGDDSVFLFPPKPKDTLMISRTPEVTCVVVDVSDEDGEVKFNWYVDGVEVHNAKTKPREEQDNSTYRVVSVLTVLHQDWLNGKEYKCKVSNAALPKPIEKTISKAKGQPREPQVYTLPPSRDELTKNQVSLTCLVKGFYPSDIAVEWESNGQPENNYKTTPPVLDSDGSFFLYSKLTVDKSRWQQGNVFSCSVMHEALHNHYTQESLSLSP
light: not shown
notes: Alterations introduced into IL6R-B3, EU numbering; copies: 2 + 2
relative binding activity [4]: 68 % of IL6R-BF648/IL6R-L binding | relative binding activity [5]: 661 % of IL6R-BF648/IL6R-L binding | relative binding activity [6]: 221 % of IL6R-BF648/IL6R-L binding | relative binding activity [7]: 344 % of IL6R-BF648/IL6R-L binding

B4: IL6R-BP198/IL6R-L (antibody, human IgG1, kappa, name in EU numbering)
heavy: B3 heavy with D239G, D298Y
light: not shown
notes: as for B3
relative binding activity [8]: 164 % of IL6R-BF648/IL6R-L binding | relative binding activity [4]: 104 % of IL6R-BF648/IL6R-L binding | relative binding activity [5]: 449 % of IL6R-BF648/IL6R-L binding | relative binding activity [6]: 157 % of IL6R-BF648/IL6R-L binding | relative binding activity [7]: 188 % of IL6R-BF648/IL6R-L binding

B5: IL6R-BP195/IL6R-L (antibody, human IgG1, kappa, name in EU numbering)
heavy: B3 heavy
light: not shown
notes: EU numbering; copies: 2 + 2
KD(IIb) of the parent polypeptide/KD(IIb) of altered polypeptide [9]: 62.3 fold | Kd [10]: 0.026 µM | KD(IIaR)/KD(IIb) [11]: 18.2 | KD(IIaH)/KD(IIb) [12]: 201

B6: IL6R-BP198/IL6R-L (antibody, human IgG1, kappa, name in EU numbering)
heavy: B3 heavy with D239G, D298Y
light: not shown
notes: EU numbering; copies: 2 + 2
KD(IIb) of the parent polypeptide/KD(IIb) of altered polypeptide [9]: 15.7 fold | KD(IIaR)/KD(IIb) [11]: 11 | KD(IIaH)/KD(IIb) [12]: 102

B7: IL6R-BP217/IL6R-L (antibody, human IgG1, kappa, name in EU numbering)
heavy: B3 heavy with D235E, Y236L, S269Q, A328K
light: not shown
notes: EU numbering; copies: 2 + 2
Kd [13]: 60 µM

B8: IL6R-BP231/IL6R-L (antibody, human IgG1, kappa, name in EU numbering)
heavy: B3 heavy with D235E, Y236L, A328K, K332R
light: not shown
notes: EU numbering; copies: 2 + 2
Kd [13]: 40 µM

B9: IL6R-BP494/IL6R-L (antibody, human IgG1, kappa, name in EU numbering)
heavy: B3 heavy with D235E, Y236L, S269A, D270E, A328K, K332R
light: not shown
notes: copies: 2 + 2
KD(IIb) OF PARENT POLYPEPTIDE/KD(IIb) OF ALTERED POLYPEPTIDE [14]: 471 | KD(IIaR) OF PARENT POLYPEPTIDE/KD(IIaR) OF ALTERED POLYPEPTIDE [15]: 4.3 | KD(IIaH)/KD(IIb) [16]: 821 | Kd [17]: 0.0065 µM | Kd [18]: 54 µM | KD(IIaR)/KD(IIb) [19]: 38.6

B10: VH3/L(WT)-mIgG1-mF44 (antibody)
heavy: QVQLQESGPGLVKPSETLSLTCAVSGHSISHDHAWSWVRQPPGEGLEWIGFISYSGITNYNPSLQGRVTISRDNSKNTLYLQMNSLRAEDTAVYYCARSLARTTAMDYWGEGTLVTVSSAKTTPPSVYPLAPGSAAQTNSMVTLGCLVKGYFPEPVTVTWNSGSLSSGVHTFPAVLQSDLYTLSSSVTVPSSTWPSETVTCNVAHPASSTKVDKKIVPRDCGCKPCICTVPEVSSVFIFPPKPKDVLTITLTPKVTCVVVDISKDDPEVQFSWFVDDVEVHTAQTQPREEQFNSTFRSVSELPIMHQDWLNGKEFKCRVNSADFPAPIEKTISKTKGRPKAPQVYTIPPPKEQMAKDKVSLTCMITDFFPEDITVEWQWNGQPAENYKNTQPIMDTDGSYFVYSKLNVQKSNWEAGNTFTCSVLHEGLHNHHTEKSLSHSPGK
light: not shown
notes: copies: 2 + 2
binding result (mouse FcγRIV): no binding | binding result (mouse FcγRI): no binding

B11: VH3/L(WT)-mIgG1 (antibody)
heavy: B10 heavy with D323A
light: not shown
notes: mouse IgG1 constant region; copies: 2 + 2
binding result (mouse FcγRIV): no binding | binding result (mouse FcγRI): no binding

B12: VH3/L(WT)-mIgG1-mF46 (antibody)
heavy: B10 heavy with S235D
light: not shown
notes: copies: 2 + 2
binding result (mouse FcγRIV): no binding | binding result (mouse FcγRI): no binding
